{"source": "patent WO2019173771A1", "about": "(dated 2019)", "binders": {"B1": {"name": "humanized anti-human CD147 hu3A11 antibody (3A11 Lc1 / Hc1) (antibody, V domains shown)", "VH": "EVQLVESGGGLVQPGGSLRLSCAASGFTFSNYWMDWVRQAPGKGLEWVGEIRLKSYNYATHYAASVKGRFTISRDDSKNSVYLQMNSLKTEDTAVYYCTAAGTDYWGQGTLVTVSS", "VL": "DIQMTQSPSSLSASVGDRVTITCRASQSVRTDVGWYQQKPGKAPKLLIYYSSNRYTGVPSRFSGSGSGTDFTLTISSLQPEDFATYYCQQDYSSPYTFGQGTKLEIK", "notes": "also called hu 3A11 Lc1 / Hc1; huHc1 / huLc1"}}, "key": {"[1]": {"biological_target": "T1, cynomolgus CD147 on the cynomolgus primary kidney epithelial cell line (cynomolgus monkey)", "T1 construct": "whole, on cells; also called cynomolgus monkey CD147", "assay": "FACS on the cynomolgus primary kidney epithelial cell line, Alexa Fluor 647 anti-human IgG"}, "[2]": {"biological_target": "T2, recombinant human CD147-Fc chimeric protein (R&D Systems, cat. no. 927-EMN-050), glycosylated (human, UniProt P35613-2 25-205, glycosylated (as supplied; migrated at about 62 kDa))", "T2 construct": "Bought protein; also called glycosylated CD147-Fc fusion protein; glycosylated CD147 antigen; not shown: Fc part of the bought chimeric protein", "T2 sequence (looked up)": "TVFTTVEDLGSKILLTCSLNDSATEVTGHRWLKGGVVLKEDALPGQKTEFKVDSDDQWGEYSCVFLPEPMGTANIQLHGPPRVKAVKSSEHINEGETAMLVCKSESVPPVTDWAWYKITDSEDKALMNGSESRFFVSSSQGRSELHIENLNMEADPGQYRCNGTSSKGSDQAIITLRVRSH", "assay": "ELISA, CD147-Fc adsorbed at 1 ug/mL"}, "[3]": {"biological_target": "T3, recombinant human CD147-Fc chimeric protein (R&D Systems, cat. no. 927-EMN-050), deglycosylated (human, UniProt P35613-2 25-205, deglycosylated of N- and simple O-linked carbohydrates (Protein Deglycosylation Mix II or Enzymatic Protein Deglycosylation Kit; migrated at 52 and 48 kDa))", "T3 construct": "Same bought protein as m6 after enzymatic deglycosylation; also called deglycosylated CD147-Fc fusion protein; deglycosylated CD147 antigen; not shown: Fc part of the bought chimeric protein", "T3 sequence (looked up)": "T2 sequence (looked up)", "assay": "ELISA, deglycosylated CD147-Fc adsorbed at 1 ug/mL"}}}
{"binder": "B1", "values": [{"measurement": "Kd", "setting": "[1]", "result": 1.3, "unit": "nM"}, {"measurement": "binding result", "setting": "[2]", "result": "binds"}, {"measurement": "binding result", "setting": "[3]", "result": "binds"}]}
